Laboratory results as given in patent publication US6541002.

Target: T1, Vpr protein of HIV-1, P12520
T1 chain: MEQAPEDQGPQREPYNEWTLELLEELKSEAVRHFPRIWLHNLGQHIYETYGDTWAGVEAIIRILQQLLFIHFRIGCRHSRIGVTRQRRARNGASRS

B1: dWF-CAT chimeric protein (protein)
chain: MQPWWAFFGGGSSWWSFSMGPTRMEKKITGYTTVDISQWHRKEHFEAFQSVAQCTYNQTVQLDITAFLKTVKKNKHKFYPAFIHILARLMNAHPEFRMAMKDGELVIWDSVHPCYTVFHEQTETFSSLWSEYHDDFRQFLHIYSQDVACYGENLAYFPKGFIENMFFVSANPWVSFTSFDLNVANMDNFFAPVFTMGKYYTQGDKVLMPLAIQVHHAVCDGFHVGRMLNELQQYCDEWQGGA
Q: How did the “CAT activity of virions (conversion of chloramphenicol to an acetylated product)” value turn out when B1 was run?
A: The value was “virions which were generated by WT/WF-CAT cells exhibited significantly higher CAT activity (28% conversion of chloramphenicol to an acetylated product) than virions which were generated by Vpr^-/WF-CAT cells (8% conversion)”.

B2: chloramphenicol acetyltransferase (CAT) (protein)
chain: MEKKITGYTTVDISQWHRKEHFEAFQSVAQCTYNQTVQLDITAFLKTVKKNKHKFYPAFIHILARLMNAHPEFRMAMKDGELVIWDSVHPCYTVFHEQTETFSSLWSEYHDDFRQFLHIYSQDVACYGENLAYFPKGFIENMFFVSANPWVSFTSFDLNVANMDNFFAPVFTMGKYYTQGDKVLMPLAIQVHHAVCDGFHVGRMLNELQQYCDEWQGGA
Q: B2 was tested. Which “CAT activity of virions (conversion of chloramphenicol to an acetylated product)” value did it give?
A: The value was “CAT activity exhibited by virions which were generated by Vpr^-/WF-CAT cells was comparable to CAT activity exhibited by virions which were generated by WT/CAT cells (each 8% conversion”.

B3: dWF-IN fusion protein (protein)
chain: MQPWWAFFGGGSSWWSFSMGPTRFLDGIDKAQEEHEKYHSNWRAMASDFNLPPVVAKEIVASCDKCQLKGEAMHGQVDCSPGIWQLDCTHLEGKVILVAVHVASGYIEAEVIPAETGQETAYFLLKLAGRWPVKTVHTDNGSNFTSTTVKAACWWAGIKQEFGIPYNPQSQGVIESMNKELKKIIGQVRDQAEHLKTAVQMAVFIHNFKRKGGIGGYSAGERIVDIIATDIQTKELQKQITKIQNFRVYYRDSRDPVWKGPAKLLWKGEGAVVIQDNSDIKVVPRRKAKIIRDYGKQMAGDDCVASRQDED
Q: Which “presence of the fusion protein in progeny virions (Western blotting)” value does the source give for B3 here?
A: The value was “the presence of dWF-fusion proteins in progeny virions was dependent on expression of Vpr in cells in which the progeny virions were produced”.

B4: dWF-PR-IN fusion protein (protein)
chain: MQPWWAFFGGGSSWWSFSMGPTRFLDGIDKAQEEHEKYHSNWRAMASDFNLPPVVAKEIVASCDKCQLKGEAMHGQVDCSPGIWQLDCTHLEGKVILVAVHVASGYIEAEVIPAETGQETAYFLLKLAGRWPVKTVHTDNGSNFTSTTVKAACWWAGIKQEFGIPYNPQSQGVIESMNKELKKIIGQVRDQAEHLKTAVQMAVFIHNFKRKGGIGGYSAGERIVDIIATDIQTKELQKQITKIQNFRVYYRDSRDPVWKGPAKLLWKGEGAVVIQDNSDIKVVPRRKAKIIRDYGKQMAGDDCVASRQDED
Q: B4 was tested. Which “presence of the fusion protein in progeny virions (Western blotting)” value did it give?
A: The value was “the presence of dWF-fusion proteins in progeny virions was dependent on expression of Vpr in cells in which the progeny virions were produced”.
